The record followed here is publication PMC4914108 (Nucleic Acids Research, 2016).

Substitutions are numbered along the chain they refer to. Like-named read-outs stand apart in the source and are kept apart here.

To fix the notation:
T1: RacA C-domain (Bacillus subtilis, UniProt P45870 71-184)
T1 sequence: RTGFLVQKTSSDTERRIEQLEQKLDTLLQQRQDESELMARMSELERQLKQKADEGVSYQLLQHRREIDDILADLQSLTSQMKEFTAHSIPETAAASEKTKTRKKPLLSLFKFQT

T2: RacA DBD K15A (Bacillus subtilis, UniProt P45870 1-70, K15A)
T2 sequence: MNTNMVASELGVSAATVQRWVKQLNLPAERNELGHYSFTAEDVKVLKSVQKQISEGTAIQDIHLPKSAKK

T3: RacA DBD (Bacillus subtilis, UniProt P45870 1-70)
T3 sequence: T2 sequence with A15K

T4: RacA FL (Bacillus subtilis, UniProt P45870 1-184)
T4 sequence: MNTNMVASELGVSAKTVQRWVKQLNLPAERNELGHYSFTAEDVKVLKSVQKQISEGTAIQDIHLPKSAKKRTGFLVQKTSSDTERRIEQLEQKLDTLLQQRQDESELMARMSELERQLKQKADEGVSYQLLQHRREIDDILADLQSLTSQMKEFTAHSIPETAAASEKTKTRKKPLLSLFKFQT

T5: RacA DBD R30A (Bacillus subtilis, UniProt P45870 1-70, R30A)
T5 sequence: T2 sequence with A15K, R30A

T6: RacA from FL crystals (proteolyzed) (Bacillus subtilis, UniProt P45870 1-64)
T6 sequence: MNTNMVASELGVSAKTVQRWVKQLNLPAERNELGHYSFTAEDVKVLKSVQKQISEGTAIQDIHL

B1: RacA C-terminal region, RacA(71-184) (domain or fragment, B. subtilis, UniProt P45870 71-184, looked up)
chain: T1 sequence
B2: 14mer ram centromere site (FP) (dsDNA)
DNA 1: TGACGCCGGCGTCA
DNA 2: TGACGCCGGCGTCA
B3: 14mer ram site, 5-bromouracil (dsDNA)
DNA 1: TGACGCCGGCGTCA
DNA 2: TGACGCCGGCGTCA
modifications: thymines replaced with 5-bromouracil
B4: DivIVA C-terminal domain, DivIVA(66-164) (domain or fragment, B. subtilis, UniProt P71021 66-164, looked up)
chain: TLNKSILVAQEAAEDVKRNSQKEAKLIVREAEKNADRIINESLSKSRKIAMEIEELKKQSKVFRTRFQMLIEAQLDLLKNDDWDHLLEYEVDAVFEEKE

Data set [1] has as its target B4. In words: ITC.
The target in another data set is T1, RacA C-domain. In words: fluorescence polarization.
A further data set deals with T2, RacA DBD K15A. In words: fluorescence polarization.
The next data set deals with T3, RacA DBD. In words: fluorescence polarization.
A further data set deals with T4, RacA FL. Briefly: fluorescence polarization.
A further data set has as its target T5, RacA DBD R30A. Briefly: fluorescence polarization.
For data set [2], the target named is T6, RacA from FL crystals (proteolyzed). Briefly: X-ray crystallography.
Data set [3] concerns the target B1. In words: ITC.
The target of data set [4] is B1. Briefly: ITC. This is another data set of the same source.

In the case of B1, the “stoichiometry N” value in [1] stood at 1.
B2: the binding result with RacA C-domain is “no binding”. Moreover, the equilibrium dissociation constant (Kd) in the data set with RacA DBD K15A was approximately 50 µM; with RacA DBD it was 9.2 ± 4 µM; with RacA FL, 58.4 ± 0.3 nM; with RacA DBD R30A, approximately 50 µM.
B3: in data set [2], the binding result was “binds”.
For the molecule B4, the Kd in data set [3] is 1500 nM; in data set [4], 1900 nM. Besides, the “stoichiometry N” value in [3] was 1.
